Results on one molecule are retold here after article PMC1283526.

In this data set the target is T1, GST-ELAV (UniProt P16914 76-483).
T1 sequence: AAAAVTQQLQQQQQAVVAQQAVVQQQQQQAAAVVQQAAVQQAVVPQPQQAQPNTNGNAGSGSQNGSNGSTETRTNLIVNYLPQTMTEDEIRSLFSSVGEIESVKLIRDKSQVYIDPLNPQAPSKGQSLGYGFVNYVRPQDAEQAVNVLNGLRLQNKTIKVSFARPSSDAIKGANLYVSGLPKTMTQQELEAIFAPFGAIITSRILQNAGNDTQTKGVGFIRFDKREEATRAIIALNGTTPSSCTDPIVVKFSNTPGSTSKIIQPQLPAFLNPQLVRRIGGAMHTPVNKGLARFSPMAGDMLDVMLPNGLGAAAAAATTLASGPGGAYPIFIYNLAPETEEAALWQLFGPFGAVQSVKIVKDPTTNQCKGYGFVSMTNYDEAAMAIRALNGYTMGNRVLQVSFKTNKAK
Put plainly: competition.

As to AUUUUUAUUUGUUAUUUUUU (ssRNA) [SSE 20mer], the binding result was “binds”.
